Target: T1, von Willebrand factor (UniProt P04275 764-2813, limits assumed)
T1 construct: also called vWF
Assay: ELISA on coated vWF, bound FVIII detected with chromogenic Coatest SP FVIII reagents; reference value set by definition
Protocol: All other potencies were calculated in relation to ReFacto AF. […] However, the only significant difference could be detected between Nuwiq and FVIII-19M. The reduced binding, also of FVIII-6rs, might be due to different post-translational modifications made by the CAP-T cells. This could be correlated with the reduced sulfation detected in the heavy and light chain in the Western Blot. Missing sulfation might have influenced vWF binding, as especially the sulfation at Y1683 is important for the binding of vWF.
For the detection of the binding of the FVIII constructs to vWF, another ELISA was performed. In this case, vWF was coated to the wells of a 96-well plate at a concentration of 0.1 U/ml. Afterwards the FVIII variants were applied at a concentration of 0.25 U/ml. ReFacto AF was used as a reference. Each sample was furtheron diluted 1:2 in buffer. A total of 7 serial dilutions were performed. […] After addition of the substrate, the plate was immediately put into a plate reader and the development of the chromogenic substrate was measured at 405 nm for 490 seconds. The generated curves were analyzed using the PLA 3.0 software. Potencies of vWF-binding of the different FVIII products were calculated in relation to ReFacto AF.

B1: ReFacto AF (other)
chain: ATRRYYLGAVELSWDYMQSDLGELPVDARFPPRVPKSFPFNTSVVYKKTLFVEFTDHLFNIAKPRPPWMGLLGPTIQAEVYDTVVITLKNMASHPVSLHAVGVSYWKASEGAEYDDQTSQREKEDDKVFPGGSHTYVWQVLKENGPMASDPLCLTYSYLSHVDLVKDLNSGLIGALLVCREGSLAKEKTQTLHKFILLFAVFDEGKSWHSETKNSLMQDRDAASARAWPKMHTVNGYVNRSLPGLIGCHRKSVYWHVIGMGTTPEVHSIFLEGHTFLVRNHRQASLEISPITFLTAQTLLMDLGQFLLFCHISSHQHDGMEAYVKVDSCPEEPQLRMKNNEEAEDYDDDLTDSEMDVVRFDDDNSPSFIQIRSVAKKHPKTWVHYIAAEEEDWDYAPLVLAPDDRSYKSQYLNNGPQRIGRKYKKVRFMAYTDETFKTREAIQHESGILGPLLYGEVGDTLLIIFKNQASRPYNIYPHGITDVRPLYSRRLPKGVKHLKDFPILPGEIFKYKWTVTVEDGPTKSDPRCLTRYYSSFVNMERDLASGLIGPLLICYKESVDQRGNQIMSDKRNVILFSVFDENRSWYLTENIQRFLPNPAGVQLEDPEFQASNIMHSINGYVFDSLQLSVCLHEVAYWYILSIGAQTDFLSVFFSGYTFKHKMVYEDTLTLFPFSGETVFMSMENPGLWILGCHNSDFRNRGMTALLKVSSCDKNTGDYYEDSYEDISAYLLSKNNAIEPRSFSQNPPVLKRHQREITRTTLQSDQEEIDYDDTISVEMKKEDFDIYDEDENQSPRSFQKKTRHYFIAAVERLWDYGMSSSPHVLRNRAQSGSVPQFKKVVFQEFTDGSFTQPLYRGELNEHLGLLGPYIRAEVEDNIMVTFRNQASRPYSFYSSLISYEEDQRQGAEPRKNFVKPNETKTYFWKVQHHMAPTKDEFDCKAWAYFSDVDLEKDVHSGLIGPLLVCHTNTLNPAHGRQVTVQEFALFFTIFDETKSWYFTENMERNCRAPCNIQMEDPTFKENYRFHAINGYIMDTLPGLVMAQDQRIRWYLLSMGSNENIHSIHFSGHVFTVRKKEEYKMALYNLYPGVFETVEMLPSKAGIWRVECLIGEHLHAGMSTLFLVYSNKCQTPLGMASGHIRDFQITASGQYGQWAPKLARLHYSGSINAWSTKEPFSWIKVDLLAPMIIHGIKTQGARQKFSSLYISQFIIMYSLDGKKWQTYRGNSTGTLMVFFGNVDSSGIKHNIFNPPIIARYIRLHPTHYSIRSTLRMELMGCDLNSCSMPLGMESKAISDAQITASSYFTNMFATWSPSKARLHLQGRSNAWRPQVNNPKEWLQVDFQKTMKVTGVTTQGVKSLLTSMYVKEFLISSSQDGHQWTLFFQNGKVKVFQGNQDSFTPVVNSLDPPLLTRYLRIHPQSWVHQIALRMEVLGCEAQDLY
potency of binding to vWF (relative to ReFacto AF): 1 relative potency

Source: patent US20240010707A1 (BIOTEST, published 2024)
